Experiments:
β2-Microglobulin [1] = biological target: T1, β2-Microglobulin (Homo sapiens, UniProt P61769); test: SPR; Biacore T200; β2M immobilised on a CM5 chip to 150 RU; VHH samples after the modification procedure (NHS-Fluo:VHH 0, 1, 5 or 20; 2 h at 4 °C, ultrafiltration) in 2-fold serial dilution, 30 μL/min, HBS-EP+, 25 °C; 1:1 model with drift and RI2
T1 construct: human β2-microglobulin; Amine-coupled to a CM5 chip (150 RU); also called antigen β2M; source: expressed and purified as previously described [27]
T1 sequence (P61769 21-119): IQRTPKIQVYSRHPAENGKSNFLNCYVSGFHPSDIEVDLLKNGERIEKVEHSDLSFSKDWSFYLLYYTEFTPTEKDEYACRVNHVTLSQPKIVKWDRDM

β2-Microglobulin [2] = biological target: T1, β2-Microglobulin; test: as above; conditions: both partners purified
β2-Microglobulin [3] = biological target: T1, β2-Microglobulin; test: SPR; Biacore T200; β2M immobilised on a CM5 chip to 150 RU; VHH samples 'Origin' (no treatment) in 2-fold serial dilution, 30 μL/min, HBS-EP+, 25 °C; 1:1 model with drift and RI2; conditions: both partners purified

B1: NB-4 modified with 1 time of NHS-Fluo (VHH)
VHH: QVQLVESGGGLVEPGGSVRLSCAVSGNIVSISTVGWYRQAPGKQRELVASITGGGTTNYGDFVNGRFSIYRDNAPNRVYLHMSTLRPDDTAVYYCNARAGGSGSGSDPYDYWGVGTQVTVSS
B1 gave a Kd (β2-Microglobulin [1]) of 26200 nM, a koff (β2-Microglobulin [1]) of 0.00315 s⁻¹ and a kon (β2-Microglobulin [1]) of 120 M⁻¹ s⁻¹.

B2: NB-1 (VHH)
VHH: QVQLVESGGGLVQAGGSLRLSCAASGSTLDSYYIGWFRQAPGKEREGVSCISSSGNSIRYVDSVKDRFTISRDNGKNTAYLHINSLRPEDTAVYYCAASRRGRKPGLPCSLVRERYAYWGQGTQVTVSS
notes: VHH domain of NB-1; flexible (G4S)4 linker between the VHH domain and the His6 tag, written out from '(G4S)4'; VHH-(G4S)4-His6; Template of the homology model: PDB 4KDT (GMQE 0.99). 'Origin' = no treatment; '0' = negative control, all physical steps of the modification without NHS-Fluo; also called NB-1-Origin; NB-1-0; source: E. coli SHuffle T7, purified (HisTrap HP)
With B2 the koff (β2-Microglobulin [2]) was 0.00669 s⁻¹, the kon (β2-Microglobulin [2]) was 48500 M⁻¹ s⁻¹ and the Kd (β2-Microglobulin [3]) was 61.8 nM. For the same binder, the koff (β2-Microglobulin [3]) was 0.00614 s⁻¹ and the kon (β2-Microglobulin [3]) was 99300 M⁻¹ s⁻¹.

B3: NB-1 modified with 5 times of NHS-Fluo (VHH)
VHH: B2 VHH
notes: as the VHH domain of Dm2; flexible (G4S)4 linker between the VHH domain and the His6 tag, written out from '(G4S)4'; A mixture of isomers with different numbers and places of fluorescein; also called NB-1-5; source: E. coli SHuffle T7, purified (HisTrap HP), modified with NHS-Fluo, ultrafiltration
B3 showed a Kd (β2-Microglobulin [2]) of 202 nM, a koff (β2-Microglobulin [2]) of 0.00843 s⁻¹ and a kon (β2-Microglobulin [2]) of 41800 M⁻¹ s⁻¹.

B4: NB-1 modified with 20 times of NHS-Fluo (VHH)
VHH: B2 VHH
notes: as the VHH domain of Dm2; flexible (G4S)4 linker between the VHH domain and the His6 tag, written out from '(G4S)4'; also called NB-1-20; labeled NB-1; source: E. coli SHuffle T7, purified (HisTrap HP), modified with NHS-Fluo, ultrafiltration
For B4, the koff (β2-Microglobulin [2]) was 0.00863 s⁻¹ and the kon (β2-Microglobulin [2]) was 29000 M⁻¹ s⁻¹.

B5: NB-2 (VHH)
VHH: QVQLVESGGGLVQHGGSLRLSCAASGSAFSTYSMTWHRQAPGKGREWVAGVDRSNSDTNYADSVKGRFTIYRDNAQNTVYLRMNSLKPEDTAVYYCSAERLDGSVRREYWGQGTQVTVSS
notes: VHH domain of NB-2; flexible (G4S)4 linker between the VHH domain and the His6 tag, written out from '(G4S)4'; VHH-(G4S)4-His6; Template of the homology model: PDB 5IML (GMQE 0.92). 'Origin' = no treatment; '0' = negative control; also called NB-2-Origin; NB-2-0; source: E. coli SHuffle T7, purified (HisTrap HP)
In the case of B5, the koff (β2-Microglobulin [2]) is reported as 0.00257 s⁻¹, the kon (β2-Microglobulin [2]) is reported as 3540 M⁻¹ s⁻¹ and the Kd (β2-Microglobulin [3]) is reported as 356 nM. It also gave a koff (β2-Microglobulin [3]) of 0.00218 s⁻¹ and a kon (β2-Microglobulin [3]) of 6120 M⁻¹ s⁻¹.

B6: NB-2 modified with 1 time of NHS-Fluo (VHH)
VHH: B5 VHH
notes: as the VHH domain of Dm6; flexible (G4S)4 linker between the VHH domain and the His6 tag, written out from '(G4S)4'; A mixture of isomers with different numbers and places of fluorescein; also called NB-2-1; source: E. coli SHuffle T7, purified (HisTrap HP), modified with NHS-Fluo, ultrafiltration
B6 showed a Kd (β2-Microglobulin [2]) of 2530 nM, a koff (β2-Microglobulin [2]) of 0.00403 s⁻¹ and a kon (β2-Microglobulin [2]) of 1600 M⁻¹ s⁻¹.

B7: NB-2 modified with 5 times of NHS-Fluo (VHH)
VHH: B5 VHH
notes: as the VHH domain of Dm6; flexible (G4S)4 linker between the VHH domain and the His6 tag, written out from '(G4S)4'; A mixture of isomers with different numbers and places of fluorescein; also called NB-2-5; source: E. coli SHuffle T7, purified (HisTrap HP), modified with NHS-Fluo, ultrafiltration
With B7 the Kd (β2-Microglobulin [2]) was 9370 nM, the koff (β2-Microglobulin [2]) was 0.00554 s⁻¹ and the kon (β2-Microglobulin [2]) was 591 M⁻¹ s⁻¹.

B8: NB-2 modified with 20 times of NHS-Fluo (VHH)
VHH: B5 VHH
notes: as the VHH domain of Dm6; flexible (G4S)4 linker between the VHH domain and the His6 tag, written out from '(G4S)4'; A mixture of isomers with different numbers and places of fluorescein; also called NB-2-20; source: E. coli SHuffle T7, purified (HisTrap HP), modified with NHS-Fluo, ultrafiltration
Work on B8 yielded a koff (β2-Microglobulin [2]) of 0.00328 s⁻¹ and a kon (β2-Microglobulin [2]) of 77.4 M⁻¹ s⁻¹.

B9: NB-3 (VHH)
VHH: QVQLVESGGGLVQPGGSLRLSCAASGFSLDYYAIGWFRQAPGKEREGVSCISSSDDSTYYAGSVKGRFKISRDNAKSTVYLQMNSLKPEDSAVYYCAALHSGNYYYTPSYICDAEMDYWGKGTLVTVSS
notes: VHH domain of NB-3; flexible (G4S)4 linker between the VHH domain and the His6 tag, written out from '(G4S)4'; VHH-(G4S)4-His6; Template of the homology model: PDB 5J56 (GMQE 0.93). 'Origin' = no treatment; '0' = negative control; also called NB-3-Origin; NB-3-0; source: E. coli SHuffle T7, purified (HisTrap HP)
For B9, the koff (β2-Microglobulin [2]) was 0.00165 s⁻¹, the kon (β2-Microglobulin [2]) was 1310 M⁻¹ s⁻¹ and the Kd (β2-Microglobulin [3]) was 525 nM. For the same binder, the koff (β2-Microglobulin [3]) was 0.00154 s⁻¹ and the kon (β2-Microglobulin [3]) was 2940 M⁻¹ s⁻¹.

B10: NB-3 modified with 1 time of NHS-Fluo (VHH)
VHH: B9 VHH
notes: as the VHH domain of Dm10; flexible (G4S)4 linker between the VHH domain and the His6 tag, written out from '(G4S)4'; A mixture of isomers with different numbers and places of fluorescein; also called NB-3-1; source: E. coli SHuffle T7, purified (HisTrap HP), modified with NHS-Fluo, ultrafiltration
With B10 the Kd (β2-Microglobulin [2]) was 3490 nM, the koff (β2-Microglobulin [2]) was 0.00297 s⁻¹ and the kon (β2-Microglobulin [2]) was 849 M⁻¹ s⁻¹.

— PMC6680903 (Molecules, 2019)
